The values that follow come from paper PMC6396981.

The target in the experiment is MTs coated with His-mCherry-SEPT9 (10 nM) (bovine (methods) or porcine (Key Resources Table) | human) (UniProt P02550). Briefly: single-molecule TIRF motility assay.

Substance “KIF5C(1–560)-L12_(KIF1A)-mCit (from UniProt P56536 1-560) (domain or fragment)” displayed a fold landing rate against SEPT9-free MTs of 2 fold.
